Experimental data reported in patent US6316596A, “Receptor for peptide hormones involving in energy homeostasis” (The Rockefeller University, priority 1998, dated 2001).
“Also recorded” adds a separate entry of the source.

How the values were obtained:
[1] = target: T1, recombinant human PACAP/VIP R-2 receptor (Homo sapiens, UniProt P41587); assay: competitive binding with 125I-VIP, CHL cells expressing recombinant receptor
T1 construct: expressed in transfected cells
T1 sequence (P41587 24-438 R412H/G424A): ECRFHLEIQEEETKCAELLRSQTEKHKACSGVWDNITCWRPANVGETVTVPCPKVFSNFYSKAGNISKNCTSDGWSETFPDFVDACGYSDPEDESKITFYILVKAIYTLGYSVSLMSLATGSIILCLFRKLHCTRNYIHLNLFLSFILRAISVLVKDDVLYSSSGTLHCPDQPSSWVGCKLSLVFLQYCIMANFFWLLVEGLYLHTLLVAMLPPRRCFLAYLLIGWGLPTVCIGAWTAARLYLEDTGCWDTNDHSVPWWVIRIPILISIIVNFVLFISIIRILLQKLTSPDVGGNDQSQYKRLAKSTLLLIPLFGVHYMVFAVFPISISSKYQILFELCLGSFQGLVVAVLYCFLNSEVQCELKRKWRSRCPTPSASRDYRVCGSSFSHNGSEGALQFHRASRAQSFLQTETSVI
Procedure: Data points represent an average of two separate experiments (n=6). The variation among individual points was 10% (see Materials and Methods).
Each peptide concentration prepared in Hfank's balanced salt solution containing 20 mM HEPES, pH 7.4, 0.5% BSA and 0.1 mM phenylmethylsulfonyl-fluoride (PMSF) was added in triplicates to intact cells. Following the incubation, the cells were washed two times with ice-cold PBS, lysed with 1 N NaOH, and radioactivity measured in gamma counter. […] The variation among triplicate values was 10%.

[2] = target: T1, recombinant human PACAP/VIP R-2 receptor; assay: stimulation of intracellular cAMP in cells expressing recombinant receptor; type: cell-based; settings: FIG. 2B; for stimulation of intracellular cAMP formation (in words) / peptide concentration at maximum stimulation of cAMP levels: CHL cells; for stimulation of intracellular cAMP formation (in words): 45 minutes at 37° C., secretin, glucagon, GLP-I and GLP-II at μM concentrations
Description: Data points represent an average of two separate determinations (n=6), except for secretin (n=3) (see Materials and Methods). The variation among individual points was 5%.

[3] = tested on: CHL cells transfected with the vector alone; assay: binding of 125I-VIP to CHL cells transfected with vector alone; set-up: species or system Chinese hamster; settings: data not shown
Procedure: Stable transformants were selected in the presence of G418 (0.8 mg/ml, GIBCO/BRL, Gaithersburg, Md.). […] Each peptide concentration prepared in Hfank's balanced salt solution containing 20 mM HEPES, pH 7.4, 0.5% BSA and 0.1 mM phenylmethylsulfonyl-fluoride (PMSF) was added in triplicates to intact cells. Following the incubation, the cells were washed two times with ice-cold PBS, lysed with 1 N NaOH, and radioactivity measured in gamma counter. […] The maximum specific binding was 5%. The variation among triplicate values was 10%.

[4] = tested on: CHL cells transfected with vector alone; assay: intracellular cAMP in CHL cells transfected with vector alone; type: cell-based, Chinese hamster; settings: 1.1 μM; data not shown
Procedure: Cells were grown in 24-well plates to about 50% confluence. They were washed twice with the incubation buffer (Macy's 5A pH 7.4, containing 20 mM HEPES, 0.5% BSA and 0.5 mM IBMX) and incubated with different concentration of synthetic peptides added in triplicates (μM-pM) for 45 minutes at 37° C. In each experiment forskolin (10 μM, Sigma, St. Louis, Mo.) was added as a positive control. After removal of the medium, cells were washed twice with PBS and lysed with 95% ethanol. The suspension was centrifuged at 13,000 rpm for 3 minutes, and supernatants were taken to dryness in a speed vacuum. The contents were reconstituted in 0.05 M acetate buffer (0.5 ml) and cAMP levels measured using the cAMP Biotrak SPA system (Amersham, Arlington Heights, Ill.). The variation among triplicate values was 5%. The data shown in FIG. 2B are average of two separate incubations (n=6), except for secretin (n=3).

insulin secretion = settings: Yada et al., 1994; cited from earlier work
[5] = 125I-VIP 44 pM, whole CHL cells

| Substance | stimulation of intracellular cAMP formation (in words) [2] | displacement of 125I-VIP binding (in words) [1, 5] | also measured |
| --- | --- | --- | --- |
| secretin: synthetic secretin purchased from Peninsula; high sequence homology to PACAP and VIP | Some increase of intracellular cAMP levels | – | high concentration at which 125I-VIP binding was displaced ([1]; 125I-VIP, FIG. 2A): 3.8 µM |
| glucagon: glucagon | did not show any stimulation | did not displace this binding | – |
| glucagon-like peptide-I [GLP-I] | did not show any stimulation | did not displace this binding | – |
| 125I-VIP: radioiodinated VIP (2000 Ci/mmol, Amersham) | – | – | binding of 125I-VIP to vector-transfected cells [3]: did not bind |
| PACAP-38: 38-amino acid form of pituitary adenylate cyclase activating polypeptide; synthetic, purchased from Peninsula | stimulated intracellular cAMP formation in a dose dependent manner | displaced in a dose dependent manner | relative affinity for the receptor (in words) ([1]; competitive binding, whole cells): higher affinity than PACAP-27; also recorded: slightly higher affinity for PACAP-38 than for VIP; cAMP response at supraphysiological concentration ([2]; 1 μM PACAP-38): sharp drop to baseline levels; peptide concentration at maximum stimulation of cAMP levels [2]: 100 nM; change of intracellular cAMP in vector-transfected cells [4]: No change of intracellular cAMP was detected; stimulation of insulin secretion (insulin secretion): ability to stimulate insulin secretion |
| glucagon-like peptide-II [GLP-II] | did not show any stimulation | did not displace this binding | – |
| PACAP-27 | stimulated intracellular cAMP formation in a dose dependent manner | complete displacement of ^125 I-VIP binding to the recombinant PACAP/VIP R-2 was not obtainable at high PACAP-27 concentration | IC50 ([1]; read-out: ID50, displacement of 125I-VIP binding, 125I-VIP 44 pM, whole CHL cells, 15-18 hour at 4° C., VIP and PACAP-27 values estimated (incomplete displacement)): 0.037 µM; peptide concentration at maximum stimulation of cAMP levels [2]: 100 nM |
